Reference: paper PMC10474464, “The mRNA binding-mediated self-regulatory function of small heat shock protein IbpA in γ-proteobacteria is conferred by a conserved arginine” (The Journal of Biological Chemistry, 2023)

Tests used:
[1] = biological target: T1, Escherichia coli inclusion body-associated protein B (Escherichia coli, UniProt P0C058 1-142); assay: co-sedimentation; sucrose density gradient centrifugation: IbpAEc (3 μM) and IbpBEc (7 μM) in buffer F incubated at room temperature for 30 min, 10% to 30% (w/v) sucrose gradient; SDS-PAGE with 6 M urea and CBB staining; details: both partners purified
T1 construct: Small heat shock protein IbpB of Escherichia coli; also called IbpBEc; His-IbpBEc; source: purified with Ni-NTA agarose upon denaturation by 6 M urea
T1 sequence (looked up): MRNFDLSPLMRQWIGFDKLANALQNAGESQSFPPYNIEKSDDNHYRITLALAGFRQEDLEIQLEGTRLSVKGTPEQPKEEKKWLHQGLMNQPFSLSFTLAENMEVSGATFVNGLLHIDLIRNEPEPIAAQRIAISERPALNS

[2] = biological target: the molecule itself; assay: sucrose density gradient centrifugation; purified IbpA (3 μM, dimeric units) alone in buffer F (50 mM Hepes-KOH pH 7.6, 0.1 M KCl, 5 mM DTT, 20 mM Mg-acetate) on a 10% to 30% (w/v) sucrose gradient, SW 41 Ti, 35,000 rpm, 4 °C, 80 min; fractions by SDS-PAGE with Western blot (anti-IbpA) or CBB staining; oligomeric state

| Binder | binding result [1] | binding result [2] |
| --- | --- | --- |
| Escherichia coli inclusion body-associated protein A, wild type (natural protein, UniProt P0C054 1-137, looked up, Small heat shock protein IbpA of Escherichia coli, expressed from pCA24N-ibpAEc; also called IbpAEc; IbpAEc-WT; source: E. coli BW25113ΔAB, overexpressed (0.5 mM IPTG), purified (anion exchange chromatography)) MRNFDLSPLYRSAIGFDRLFNHLENNQSQSNGGYPPYNVELVDENHYRIAIAVAGFAESELEITAQDNLLVVKGAHADEQKERTYLYQGIAERNFERKFQLAENIHVRGANLVNGLLYIDLERVIPEAKKPRRIEIN | binds | binds |
| Escherichia coli inclusion body-associated protein A, R93A mutant (natural protein, UniProt P0C054 1-137, looked up, Small heat shock protein IbpA of Escherichia coli with R93A, made by site-directed mutagenesis of pCA24N-ibpAEc; also called IbpAEc-R93A; IbpA-R93A; source: E. coli BW25113ΔAB, overexpressed (0.5 mM IPTG), purified (anion exchange chromatography)) MRNFDLSPLYRSAIGFDRLFNHLENNQSQSNGGYPPYNVELVDENHYRIAIAVAGFAESELEITAQDNLLVVKGAHADEQKERTYLYQGIAEANFERKFQLAENIHVRGANLVNGLLYIDLERVIPEAKKPRRIEIN | binds | binds |
